Results taken from the supplement of paper PMC7125110.
± gives the standard error. For some of these results: Variants at the floor of the assay were thinned out.

B1: glmS ribozyme (parent)
chain: AUAAAAGCGCCAGAACUACAGAAAUGUAGUUGACGAGGAGGAGGUUUAUCGAAUUUUCGGCGGAUGCCUCCAAA

Legend:
Details in all cases: with glucosamine-6-phosphate
glucosamine-6-phosphate [1] = variants of: B1; assay: kcat; higher = faster cleavage; RNA array
Outline: (§1)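 Tiles bearing barcoded ribozyme variants, transcribed in situ by E. coli RNA polymerase on sequenced MiSeq chips, were imaged over ~14 h at 37 °C using a hybridised Cy3 probe. Glucosamine-6-phosphate was supplied at 40 μM to 10 mM in HEPES/KCl/Mg(OAc)2 buffer. kobs came from one- or two-exponential decay fits to normalised per-tile medians, and weighted Michaelis–Menten fits then provided kcat and KM.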

glucosamine-6-phosphate [2] = variants of: B1; assay: self-cleavage kobs at 40 uM GlcN6P; higher = faster cleavage; RNA array
Outline: as §1

glucosamine-6-phosphate [3] = variants of: B1; assay: self-cleavage kobs at 160 uM GlcN6P; higher = faster cleavage; RNA array
Outline: as §1

glucosamine-6-phosphate [4] = variants of: B1; assay: self-cleavage kobs at 640 uM GlcN6P; higher = faster cleavage; RNA array
Outline: as §1

glucosamine-6-phosphate [5] = variants of: B1; assay: self-cleavage kobs at 2500 uM GlcN6P; higher = faster cleavage; RNA array
Outline: as §1

glucosamine-6-phosphate [6] = variants of: B1; assay: self-cleavage kobs at 10000 uM GlcN6P; higher = faster cleavage; RNA array
Outline: as §1

glucosamine-6-phosphate [7] = variants of: B1; assay: KM; higher = weaker cofactor use; RNA array
Outline: as §1

| Variant | kcat (glucosamine-6-phosphate [1]) [s⁻¹] | self-cleavage kobs at 40 uM GlcN6P (glucosamine-6-phosphate [2]) [s⁻¹] | self-cleavage kobs at 160 uM GlcN6P (glucosamine-6-phosphate [3]) [s⁻¹] | self-cleavage kobs at 640 uM GlcN6P (glucosamine-6-phosphate [4]) [s⁻¹] | self-cleavage kobs at 2500 uM GlcN6P (glucosamine-6-phosphate [5]) [s⁻¹] | self-cleavage kobs at 10000 uM GlcN6P (glucosamine-6-phosphate [6]) [s⁻¹] | KM (glucosamine-6-phosphate [7]) [µM] |
| --- | --- | --- | --- | --- | --- | --- | --- |
| U31C A64G | 0.00541 ± 0.0022 | 7.83e-05 ± 1.1e-05 | 0.000159 ± 2.1e-05 | 0.00109 ± 0.00013 | 0.00224 ± 0.00024 | 0.00363 ± 0.00047 | – |
| A48C U55C | 0.000419 ± 0.00015 | – | – | 6.73e-05 ± 1.2e-05 | 0.000327 ± 4.9e-05 | 0.00029 ± 4.9e-05 | – |
| A39G C50A | 3.27e-05 ± 5.7e-06 | – | – | – | – | – | – |
| C16G U54G | 0.00297 ± 0.00074 | 0.000177 ± 3.8e-05 | 0.000312 ± 6.7e-05 | 0.00211 ± 0.0008 | 0.00175 ± 0.0004 | 0.00291 ± 0.00046 | 1080 ± 460 |
| G29U A53U | 0.00357 ± 0.00055 | 8.45e-05 ± 1e-05 | 0.000275 ± 4.9e-05 | 0.00114 ± 0.00013 | 0.00252 ± 0.00027 | 0.00266 ± 0.00038 | 1600 ± 360 |
| G41A C70G | 0.000368 ± 0.00014 | 4.43e-05 ± 8e-06 | 6.45e-05 ± 1.1e-05 | 0.000156 ± 1.6e-05 | 0.000332 ± 4e-05 | – | – |
| C16A A64U | < 1e-05 | < 1e-05 | < 1e-05 | – | – | – | – |
| U47C U65A | 0.00113 ± 0.00024 | 6.54e-05 ± 1.7e-05 | 0.000154 ± 2.2e-05 | 0.000443 ± 9.4e-05 | 0.00121 ± 0.00023 | 0.00092 ± 0.00017 | 930 ± 300 |
| A14U G44A | 6.83e-05 ± 2.6e-06 | – | < 1e-05 | – | 3.21e-05 ± 6.8e-06 | 5.38e-05 ± 6.7e-06 | 2730 ± 310 |
| C61A C67A | 6.65e-05 ± 1.4e-05 | – | 5.31e-05 ± 1.5e-05 | 5.15e-05 ± 1.8e-05 | 7.72e-05 ± 1.8e-05 | – | – |
| G29A U65A | 0.000167 ± 6.7e-05 | – | – | 0.000132 ± 3e-05 | 0.000122 ± 2.8e-05 | – | – |
| U45A U46G | 0.0594 ± 0.012 | 0.00256 ± 0.00026 | 0.00762 ± 0.0012 | 0.0264 ± 0.006 | 0.0366 ± 0.012 | 0.0669 ± 0.021 | 939 ± 230 |
| U31G G38U | < 1e-05 | – | – | – | – | – | – |
| A15G U47G | 0.00418 ± 0.0015 | 0.000326 ± 5.4e-05 | 0.000812 ± 0.00016 | 0.00171 ± 0.00031 | 0.00298 ± 0.00072 | 0.00738 ± 0.0014 | – |
| A15G U54C | 0.0142 ± 0.0059 | 0.000969 ± 0.00018 | 0.0021 ± 0.00098 | – | – | 0.0181 ± 0.0046 | – |
| G7U C71G | 1.1e-05 ± 2.1e-06 | – | < 1e-05 | – | – | – | – |
| U55A C68A | 7.99e-05 ± 1.6e-05 | – | 6.93e-05 ± 1.2e-05 | 8.04e-05 ± 2.1e-05 | 6.96e-05 ± 1.3e-05 | – | – |
